Measurements from patent publication US20110294873A1, “Gene Transfer Vectors Comprising At Least One Isolated DNA Molecule Having Insulator Or Boundary Properties And Methods To Identify The Same” (UNIVERSITÉ DE LAUSANNE, priority 2008, published 2011).

Key:
HeLa cells = assay: Barrier assay: SV40 promoter/GFP transgene flanked by elements, stable transfection, FACS; assay type: cell-based, human
Text: Nevertheless, whether it may also function as a barrier element upon transgene integration at internal chromosomal loci has not been assessed. The CTF/NFI adeno. (5 bp spacing) or CTCF binding sites were sub-cloned on each side of a SV40 promoter/GFP gene cassette, to address the potential barrier properties of these sequences at random chromosomal locations (FIG. 29A). A multiple cloning site spacer element was cloned in place of the insulators in the negative control plasmid, while the 1-68 matrix attachment region (MAR) element that potently abrogates silencing effects was used as positive control (Girod et al., 2007).
These constructs were stably transfected in HeLa cells, and the GFP fluorescence profile was assessed for each construct on the polyclonal cell population. The distribution of the cell fluorescence in the populations varied from one construct to another but nevertheless yielded reproducible patterns of cells displaying distinct levels of GFP expression. The fluorescence profiles were used to define 3 sub-populations of GFP-positive cells termed M1, M2 and M3, which designate low, medium, and high GFP expression ranges (FIG. 29B). Cells whose fluorescence profile overlapped with the profile of non-transfected cells were considered as non-expressing cells.
(A) Schematic representation of the insulated GFP transgene. GFP expression was driven by a SV40 promoter and the effect of elements inserted on both sides of the transgene was evaluated in stable transfections of HeLa cells.
(B) Results of representative FACS analysis for GFP expression of HeLa cell populations stably transfected with constructs described in panel A (16 days after transfection). The GFP transgene was flanked by either a multiple cloning site (MCS), or 7 binding sites for CTF/NFI (Adeno., 5 bp spacing), or one copy of the 1-68 MAR element. The profile of non-transfected cells is depicted in grey. […]

[1] = test system: Fr-MLV LTR enhancer acting on GFP gene in HeLa cells; assay: First generation two-reporter (DsRed/GFP) enhancer-blocking assay, transient transfection, FACS; assay type: cell-based, human; conditions: element interposed between enhancer and GFP gene
Text: The strategy elaborated by Applicants to address the potential enhancer-blocking activity of genetic elements consists in setting up a two-reporter genes-assay whereby the potency of suspected insulators can be quantified. A series of plasmids were thus designed, containing a combination of two reporter genes: a DsRed gene, used as the assay system internal control, under the control of a Fr-MLV LTR enhancer/promoter, and a GFP gene under the control of a minimal CMV promoter, but also subjected to the influence of the LTR enhancer. […] By analyzing the expression of both reporter genes by flow cytometry, this system provides a standardized quantitative procedure to assess potential insulator elements. […]
The constructs described in FIG. 14 were used to transfect transiently HeLa cells. The expression of both DsRed and GFP was analyzed by FACS. […]
HeLa cells were transfected with pAG1-3-HS4 (left panel) or pAG1-3-2HS4 (right panel) constructs (respectively constructs #4 and #5 on FIG. 30), and 100′000 cells were analyzed 48 hours later. […]
HeLa cell populations transiently transfected with constructs containing either no cHS4 (noins) or a copy at the GFP extremity (HS4) or two copies flanking the GFP gene (2HS4) were analyzed by FACS. Percentages of GFP-expressing cells (left panel) and GFP mean fluorescence in RLU (right panel) are plotted for each case.

[2] = HeLa stable, relative to GFP-positive cells

B1: Ins2: 7 direct repeats of the CTF/NF1 binding site from adenovirus type II origin of replication, 5 bp spacing (nucleic acid)
DNA: ATCGATAAGCTTGCATTGGCAACGTGCCATAAGCATTGGCAACGTGCCATAAGCATTGGCAACGTGCCATAAGCATTGGCAACGTGCCATAAGCATTGGCAACGTGCCATAAGCATTGGCAACGTGCCATAAGCATTGGCAACGTGCCATAAGCGGGGGGATCC
modifications: 7xCTF/NF1 from adenovirus type II
HeLa cells; [2]
  cells in M1 sub-population (low GFP): one third
  cells in M3 sub-population (high GFP): ~10%
HeLa cells; stably transfected polyclonal HeLa pools, up to one month
  GFP transgene expression over time (anti-silencing effect): stable and can withstand cell division
[1]
  decrease of mean fluorescence of GFP-positive cells: approximately three-fold
